Experimental data reported in US20220195064A1 (Memorial Sloan Kettering, published 2022).

Columns and labels:
[1] = biological target: T1, recombinant soluble human CD371 extracellular domain (His 65-Ala 265) with polyhistidine tag (human, UniProt Q5QGZ9 65-265, biotinylated in the scFv BLI measurements (site not stated)); experiment: phage ELISA on human CD371, anti-M13 detection
T1 construct: range 65-265; also called soluble CD371; recombinant CD371; not shown: polyhistidine tag
T1 sequence (looked up): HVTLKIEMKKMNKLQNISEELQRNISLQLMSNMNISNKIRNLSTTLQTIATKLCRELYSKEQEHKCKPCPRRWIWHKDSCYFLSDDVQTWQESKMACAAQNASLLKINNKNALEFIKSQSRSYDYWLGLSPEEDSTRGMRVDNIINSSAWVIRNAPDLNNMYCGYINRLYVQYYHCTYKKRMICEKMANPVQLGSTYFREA
Procedure: (§1) A proprietary naïve, semi-synthetic scFv phage display library was screened for antibodies that bind to the CD371 protein by using standard solid phase phage display panning techniques. Briefly, recombinant CD371 was immobilized on a polystyrene surface followed by blocking with about 5% milk and incubation with the phage library. Subsequent washing, elution and phage amplification steps were performed to complete each round of biopanning. Three rounds of panning were completed using amplified CD371 binder-enriched phage pools from the previous round of panning as input for subsequent rounds.

[2] = biological target: T2, recombinant extracellular domain of murine CD371 (Thr 67-Arg 267) with polyhistidine tag (murine, UniProt Q504P2 67-267); experiment: phage ELISA, anti-M13 detection
T2 construct: range 67-267; also called mouse homolog of CD371; not shown: polyhistidine tag
T2 sequence (looked up): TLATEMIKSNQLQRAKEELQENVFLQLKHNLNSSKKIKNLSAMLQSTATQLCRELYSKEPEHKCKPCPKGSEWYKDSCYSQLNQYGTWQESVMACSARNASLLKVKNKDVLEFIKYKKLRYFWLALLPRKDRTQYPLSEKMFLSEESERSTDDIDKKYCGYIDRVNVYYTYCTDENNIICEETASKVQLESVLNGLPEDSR
Procedure: as §1

[3] = biological target: T3, human CD371 on the cell surface (OCI AML cells; HEK293 cells expressing human CD371) (human, UniProt Q5QGZ9 1-265); experiment: flow cytometry of monoclonal phage prep on HEK293H cells transfected with human CD371 against wild type HEK293H; detection by anti-M13 mAb and PE anti-mouse
T3 construct: whole, on cells; The transfected construct is not specified further; also called CD371 cells; CD371+ AML cell line OCI
T3 sequence (looked up): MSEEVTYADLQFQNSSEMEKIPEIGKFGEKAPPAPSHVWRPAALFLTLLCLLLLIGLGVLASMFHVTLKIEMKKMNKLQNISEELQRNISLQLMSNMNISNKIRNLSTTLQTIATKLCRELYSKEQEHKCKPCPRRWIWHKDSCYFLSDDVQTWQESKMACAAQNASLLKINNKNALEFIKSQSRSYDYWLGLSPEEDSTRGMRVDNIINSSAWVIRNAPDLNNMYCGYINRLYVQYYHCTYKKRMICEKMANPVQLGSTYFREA
Procedure: Once selected, positive scFv clones are tested for their binding to CD371 (e.g., human CD371) on cell surfaces by flow cytometry. Briefly, phage clones are incubated with HEK293H cells over-expressing CD371. The cells are washed and then incubated with a M13 coat protein mAb. Cells are washed again and labeled with a PE-labeled anti-mouse Fab₂ prior to flow cytometry.

[4] = biological target: T1, recombinant soluble human CD371 …; experiment: BLI, Fc fusion captured with anti-Fc antibody, soluble CD371 as analyte
Excerpt: (§2) Affinity measurements of the B10 variants determined by biolayer interferometry by capturing the IgG and Fc fusions with anti-Fc antibody, and using soluble CD371 as analyte. For scFv affinity measurements, biotinylated CD371 was captured with streptavidin, and soluble scFv was used as analyte. […] Consistent with the flow cytometry results, the full IgG and the scFv-Fc fusions bound more strongly than the scFvs (Table 8), presumably due to their bivalent interaction, resulting in an avidity effect. Weak binding of the 1B10 scFv in the VH-VL Orientation was observed but a dissociation constant could not be calculated by any curve fit method.

[5] = biological target: T1, recombinant soluble human CD371 …; experiment: BLI, biotinylated CD371 captured with streptavidin, soluble scFv as analyte
Excerpt: as §2

[6] = biological target: T1, recombinant soluble human CD371 …; experiment: BLI, IgG captured with anti-Fc antibody, soluble CD371 as analyte
Excerpt: as §2

B1: B031_P1_PH2A11 monoclonal phage prep (scFv displayed on phage) (scFv, V domains shown)
VH: EVQLLESGGGLVQPGGSLRLSCAASGFTFTSTQMSWVRQAPGKGLEWVSEISGYGGSTYYADSVKGRFTISRDNSKNTLYLQMNSLRAEDTAVYYCAKDTEVSGDAFDIWGQGTMVTVSS
VL: EIVLTQSPGTLSLSPGERATLSCRASQSVDSSNLAWYQQKPGQAPRLLIYGASSRATGIPDRFSGSGSGTDFTLTISRLEPEDFAVYYCQQYRSWPITFGQGTKVEIK
notes: Tested as an scFv on M13 phage
[1]
  binding result: binds
[2]
  binding result: no binding

B2: B031_P1_PH1C3 monoclonal phage prep (scFv displayed on phage) (scFv, V domains shown)
VH: EVQLLESGGGLVQPGGSLRLSCAASGFTFTSYAMSWVRQAPGKGLEWVSGIDGSGGGTNYADSVKGRFTISRDNSKNTLYLQMNSLRAEDTAVYYCARAYYDILTGYPVDGMDVWGQGTTVTVSS
VL: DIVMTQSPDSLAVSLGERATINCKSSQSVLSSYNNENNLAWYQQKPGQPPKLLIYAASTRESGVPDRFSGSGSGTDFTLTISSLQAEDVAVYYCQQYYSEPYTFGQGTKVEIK
notes: as for B1
[2]
  binding result: no binding

B3: B031_P1_PH1D6 monoclonal phage prep (scFv displayed on phage) (scFv, V domains shown)
VH: EVQLLESGGGLVQPGGSLRLSCAASGFTFTDYAMSWVRQAPGKGLEWVSDIDGSGGSTDYADSVKGRFTISRDNSKNTLYLQMNSLRAEDTAVYYCALELGATTVYWGQGTLVTVSS
VL: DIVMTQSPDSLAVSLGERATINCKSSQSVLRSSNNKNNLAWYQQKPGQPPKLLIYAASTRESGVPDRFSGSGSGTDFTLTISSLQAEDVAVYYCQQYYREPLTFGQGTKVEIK
notes: as for B1
[3]
  binding result: binds
[1]
  binding result: binds
[2]
  binding result: no binding

B4: B031_P1_PH2E4 monoclonal phage prep (scFv displayed on phage) (scFv, V domains shown)
VH: EVQLLESGGGLVQPGGSLRLSCAASGFTFTSYYMSWVRQAPGKGLEWVSGISGSGDSTSYADSVKGRFTISRDNSKNTLYLQMNSLRAEDTAVYYCAREAGGDYDSGAFDIWGQGTMVTVSS
VL: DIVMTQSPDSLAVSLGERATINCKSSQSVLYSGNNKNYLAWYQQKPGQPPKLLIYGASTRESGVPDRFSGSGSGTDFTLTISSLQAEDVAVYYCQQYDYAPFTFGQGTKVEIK
notes: as for B1
[1]
  binding result: binds
[2]
  binding result: no binding

B5: B031_P1_PH2E8 monoclonal phage prep (scFv displayed on phage) (scFv, V domains shown)
VH: EVQLLESGGGLVQPGGSLRLSCAASGFTFSSYAMSWVRQAPGKGLEWVSEIDGEGGYTNYADSVKGRFTISRDNSKNTLYLQMNSLRAEDTAVYYCAREGVDYDILTGYYPYGMDVWGQGTTVTVSS
VL: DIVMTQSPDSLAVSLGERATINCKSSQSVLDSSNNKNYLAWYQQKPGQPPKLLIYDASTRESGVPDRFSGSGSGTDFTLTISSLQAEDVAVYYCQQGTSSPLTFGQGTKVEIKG
notes: as for B1
[2]
  binding result: no binding

B6: B10 scFv-Fc fusion, VH-VL orientation (Fc fusion)
chain: EVQLLESGGGLVQPGGSLRLSCAASGFTFSDYQMSWVRQAPGKGLEWVSGIQGGGGSTYYADSVKGRFTISRDNSKNTLYLQMNSLRAEDTAVYYCAREMWRGDYYSGMDVWGQGTTVTVSSGGGGSGGGGSGGGSGGGGSDIVMTQSPDSLAVSLGERATINCKSSQSVLDSYNNENNLAWYQQKPGQPPKLLIYWASTRESGVPDRFSGSGSGTDFTLTISSLQAEDVAVYYCQQYTSEPITFGQGTKVEIK
notes: also called VH-VL-Fc; not shown: Fc region
[4]
  Kd: 4.2 nM
  koff: 0.000968 s⁻¹
  kon: 232000 M⁻¹ s⁻¹

B7: B10 scFv-Fc fusion, VL-VH orientation (Fc fusion)
chain: DIVMTQSPDSLAVSLGERATINCKSSQSVLDSYNNENNLAWYQQKPGQPPKLLIYWASTRESGVPDRFSGSGSGTDFTLTISSLQAEDVAVYYCQQYTSEPITFGQGTKVEIKGGGGSGGGGSGGGSGGGGSEVQLLESGGGLVQPGGSLRLSCAASGFTFSDYQMSWVRQAPGKGLEWVSGIQGGGGSTYYADSVKGRFTISRDNSKNTLYLQMNSLRAEDTAVYYCAREMWRGDYYSGMDVWGQGTTVTVSS
notes: also called VL-VH-Fc; not shown: Fc region
[4]
  Kd: 7 nM
  koff: 0.00206 s⁻¹
  kon: 295000 M⁻¹ s⁻¹

B8: B10 scFv in the VL-VH orientation (scFv)
scFv: DIVMTQSPDSLAVSLGERATINCKSSQSVLDSYNNENNLAWYQQKPGQPPKLLIYWASTRESGVPDRFSGSGSGTDFTLTISSLQAEDVAVYYCQQYTSEPITFGQGTKVEIKGGGGSGGGGSGGGSGGGGSEVQLLESGGGLVQPGGSLRLSCAASGFTFSDYQMSWVRQAPGKGLEWVSGIQGGGGSTYYADSVKGRFTISRDNSKNTLYLQMNSLRAEDTAVYYCAREMWRGDYYSGMDVWGQGTTVTVSS
notes: Soluble scFv; also called VL-VH scFv; 1B10 scFv VL-VH
[5]
  Kd: 16 nM
  koff: 0.00952 s⁻¹
  kon: 599000 M⁻¹ s⁻¹

B9: B10 reformatted to human IgG1 (antibody, V domains shown)
VH: EVQLLESGGGLVQPGGSLRLSCAASGFTFSDYQMSWVRQAPGKGLEWVSGIQGGGGSTYYADSVKGRFTISRDNSKNTLYLQMNSLRAEDTAVYYCAREMWRGDYYSGMDVWGQGTTVTVSS
VL: not shown
notes: Human IgG1; also called 1B10 IgG1; B031_P1_PH1B10 IgG1
[6]
  Kd: 9.5 nM
  koff: 0.00153 s⁻¹
  kon: 160000 M⁻¹ s⁻¹

B10: B031_P1_PH1B10 monoclonal phage prep (scFv displayed on phage) (scFv, V domains shown)
VH: EVQLLESGGGLVQPGGSLRLSCAASGFTFSDYQMSWVRQAPGKGLEWVSGIQGGGGSTYYADSVKGRFTISRDNSKNTLYLQMNSLRAEDTAVYYCAREMWRGDYYSGMDVWGQGTTVTVSS
VL: not shown
notes: Tested as an scFv on M13 phage (supernatant or phage prep)
[2]
  binding result: no binding
